Test results: the supplement of paper PMC9732359
± gives the uncertainty stated by the source.

Test: protein stability index of a GFP-peptide fusion (yeast GPS) (PSI 1-4); higher = more stable; sorted into four equal gates, so the index is relative within each strain
In short: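 Yeast carrying a pooled library were grown to mid-log phase in leucine-free medium. Each library plasmid expresses Cherry and has a tiled 17-residue yeast protein peptide fused downstream of GFP. Cells were sorted into four equal gates by GFP/Cherry ratio, and plasmids from each gate were PCR-amplified, Illumina-sequenced and assigned to strains by barcode. Summing, across gates, the read frequency times the gate number gave each peptide's protein stability index.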

Sequence | protein stability index (doa10∆) | protein stability index (pdr5∆) | protein stability index (san1∆) | protein stability index (ubr1∆)
KNESATINEMMKHLGRS [FAS2] | 2.6 ± 0.082 | 2.87 ± 0.087 | 2.65 ± 0.062 | 2.81 ± 0.095
VVRIKGINKIPPKPRKV [RPL7A] | 1.94 ± 0.043 | 2.21 ± 0.055 | 2.57 ± 0.063 | 2.44 ± 0.047
TIQYDPPETKLPYPTYW [SNF5] | 3.02 ± 0.049 | 2.93 ± 0.042 | 2.98 ± 0.039 | 2.94 ± 0.039
VIQIVTGIFMAMHYSSN [COB] | 1.32 ± 0.078 | 1.16 ± 0.069 | 1.33 ± 0.17 | 1.46 ± 0.088
VLVKWTRTIKQNNFHVL [RGR1] | – | 1.3 ± 0.27 | – | –
SGTTNFMRNGLLEGLNE [UBP6] | 2.73 ± 0.21 | 2.87 ± 0.14 | 3.22 ± 0.17 | 3.45 ± 0.23
LRAAQQQWGNDFYKRDP [FAS2] | 2.44 ± 0.068 | 2.77 ± 0.051 | 2.32 ± 0.12 | 2.71 ± 0.047
RSPVFALNMLPSEILHL [GRR1] | 2.3 ± 0.049 | 2.27 ± 0.042 | 2.4 ± 0.053 | 2.19 ± 0.028
GKETIARVTGGMKVKAD [RPS14B] | 1.42 ± 0.1 | 1.24 ± 0.096 | 1.85 ± 0.11 | 2.6 ± 0.11
LESKMSEVGDAFIFGLQ [SMC3] | 3.29 ± 0.061 | 3.28 ± 0.06 | 3.31 ± 0.041 | 3.34 ± 0.052
TRSALKLVRESELLGGT [QCR2] | 2.51 ± 0.29 | 2.5 ± 0.24 | 2.21 ± 0.16 | –
YENSISKDLRSVWKPIA [IRR1] | 2.58 ± 0.092 | 2.63 ± 0.11 | 2.57 ± 0.064 | 2.54 ± 0.05
EMEVDAEGEEVEVKAEI [RPN1] | 3.48 ± 0.091 | 3.74 ± 0.24 | 3.55 ± 0.093 | 3.39 ± 0.079
LSEEETLLVIRRLHKVL [SNF2] | 1.7 ± 0.086 | 2.22 ± 0.07 | 1.84 ± 0.11 | 2.21 ± 0.053
KDEIVLSGNSVEDVSQN [RPL9A] | – | 3.52 ± 0.26 | – | –
IVDFTLPPPPPPPGLDE [PRP8] | 3.15 ± 0.05 | 3.1 ± 0.048 | 3.2 ± 0.038 | 3.14 ± 0.039
EIVNMVPSHVPQVLINR [SIR2] | 3.13 ± 0.11 | 2.93 ± 0.079 | 2.53 ± 0.11 | 2.88 ± 0.054
LKLPLEINYAFSMDEEF [SIR3] | 2.13 ± 0.07 | 2.18 ± 0.058 | 2.73 ± 0.056 | 2.2 ± 0.048
YNSRPRSVRIPWYNNPV [PRP8] | 2.34 ± 0.083 | 2.22 ± 0.062 | 1.73 ± 0.088 | 2.49 ± 0.049
WASKYGQEYPRIIGLSA [BRR2] | 1.47 ± 0.073 | 2.32 ± 0.089 | 1.87 ± 0.085 | 1.93 ± 0.052
VFHDPDHSMILPSGVLS [SMC3] | 1.71 ± 0.15 | 2.08 ± 0.089 | 2.04 ± 0.13 | 2 ± 0.047
NITFSEELVSLAVFLFD [YJL039C/NUP192] | – | – | 1.62 ± 0.28 | 1.66 ± 0.29
PERFMVFQLPTRLPAFE [RPC53] | 2.31 ± 0.065 | 2.75 ± 0.054 | 2.54 ± 0.089 | 2.79 ± 0.058
DKLLDFIRYDVKTPKKT [CSN12] | 2.73 ± 0.046 | 2.64 ± 0.045 | 2.2 ± 0.052 | 2.99 ± 0.053
YILEAEAAAKEKDELDN [QCR7] | 3.1 ± 0.24 | 3.11 ± 0.11 | 3.1 ± 0.14 | 3.18 ± 0.079
SKKRKLVADGVFYAELN [RPS3] | 2.82 ± 0.24 | 1.84 ± 0.19 | 1.55 ± 0.13 | –
WRAIIKAIFPNTVDGDL [FAS1] | 2.58 ± 0.13 | 2.75 ± 0.15 | 2.6 ± 0.094 | –
PKKYKENNTDSARKELE [SMC1] | 2.96 ± 0.059 | 2.8 ± 0.065 | 3.09 ± 0.046 | 3.31 ± 0.057
